Reference: paper PMC6393303

Legend:
[1] = target: pcna-6 (DD41,42AA) mutant PCNA (yeast) (UniProt P15873)
[2] = target: wild-type proliferating cell nuclear antigen (PCNA) (yeast) (UniProt P15873)
[3] = target: wild-type proliferating cell nuclear antigen (PCNA) (yeast) (UniProt P15873); remark: listed apart in the source
[4] = target: wild-type proliferating cell nuclear antigen (PCNA) (yeast) (UniProt P15873); remark: listed apart in the source
[5] = target: pcna-6 (DD41,42AA) mutant PCNA (yeast) (UniProt P15873); remark: listed apart in the source
[6] = target: wild-type proliferating cell nuclear antigen (PCNA) (yeast) (UniProt P15873); remark: listed apart in the source

Sequence of wild-type proliferating cell nuclear antigen (PCNA) (yeast) (P15873 whole entry): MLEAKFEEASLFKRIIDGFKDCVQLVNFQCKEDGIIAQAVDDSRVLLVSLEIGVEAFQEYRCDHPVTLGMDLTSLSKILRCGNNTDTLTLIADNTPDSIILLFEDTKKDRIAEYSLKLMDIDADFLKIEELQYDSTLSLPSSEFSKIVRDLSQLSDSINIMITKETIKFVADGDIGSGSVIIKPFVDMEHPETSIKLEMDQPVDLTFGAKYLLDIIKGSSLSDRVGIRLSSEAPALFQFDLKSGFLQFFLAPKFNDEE
Sequence of pcna-6 (DD41,42AA) mutant PCNA (yeast) (P15873 other isoform, or with tags, fused parts or gaps mutant): as the sequence (P15873 whole entry) above, with D41A, D42A counted along it

Substance | single-nucleotide extension rate (k fast), quench flow, 76/29 template/primer, 12°C [1] | single-nucleotide extension rate (k fast), quench flow, 76/29 template/primer, 12°C [2] | nucleotide incorporation rate (rate of primer disappearance, single exponential fit), quench flow, 75/29 template/primer, 300 nM mini-Pol δ-DV, 150 nM PCNA, 75 nM RFC, AMP-CPP, 100 mM NaCl, 30°C [3] | replication of the T20 template by the fastest moving complexes, quench flow, 100 mM NaCl (nucleotides per second) [4] | peak of the normalized product distribution (nucleotides incorporated) at 10 and 50 ms, single processive cycle with heparin trap [5] | peak of the normalized product distribution (nucleotides incorporated) at 10 and 50 ms, single processive cycle with heparin trap [6]
DNA polymerase δ (Pol δ-DV), full-length exonuclease-deficient (D520V) heterotrimer (from UniProt P15436 1-1097; P46957 1-487; P47110 1-350) (complex) | 55 s⁻¹ | 183 s⁻¹ |  |  |  | 
mini-Pol δ-DV (variant DNA polymerase δ heterotrimer, exonuclease-deficient D520V) (from UniProt P15436 82-1097; P46957 1-487; P47110 1-350) (complex) |  |  | > 350 s⁻¹ | 500 | 7 nucleotides | 16 nucleotides
